Test results from patent US20220242958A1 (published 2022).
Residue numbers refer to the chain shown, from its start. Names may count otherwise.

What was measured:
[1] = molecular target: T1, recombinant IL-3Rα ectodomain (UniProt P26951 19-305, limits assumed); experiment: ELISA, recombinant IL-3Ra
T1 construct: extracellular domain; also called IL-3Ra ectodomain; recombinant IL-3Ra
T1 sequence (looked up): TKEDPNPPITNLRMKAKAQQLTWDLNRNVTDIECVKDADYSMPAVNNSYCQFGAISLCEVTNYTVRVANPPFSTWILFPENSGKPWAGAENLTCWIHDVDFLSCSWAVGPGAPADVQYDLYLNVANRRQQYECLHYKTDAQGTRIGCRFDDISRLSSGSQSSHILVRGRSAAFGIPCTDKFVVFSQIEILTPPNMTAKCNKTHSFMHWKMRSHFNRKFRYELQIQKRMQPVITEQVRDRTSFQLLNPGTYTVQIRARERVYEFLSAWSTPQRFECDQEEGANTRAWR

[2] = molecular target: human CXCR4 (on cells, membrane extracts or viral lipoparticles) (human, UniProt P61073 1-352); experiment: cell-based or functional assay
[3] = molecular target: T2, human CD4, cell-expressed (human, UniProt P01730 26-458); experiment: FACS, MOLM-13 cells
T2 construct: whole, on cells

Sequence of human CXCR4 (on cells, membrane extracts or viral lipoparticles) (P61073 whole entry): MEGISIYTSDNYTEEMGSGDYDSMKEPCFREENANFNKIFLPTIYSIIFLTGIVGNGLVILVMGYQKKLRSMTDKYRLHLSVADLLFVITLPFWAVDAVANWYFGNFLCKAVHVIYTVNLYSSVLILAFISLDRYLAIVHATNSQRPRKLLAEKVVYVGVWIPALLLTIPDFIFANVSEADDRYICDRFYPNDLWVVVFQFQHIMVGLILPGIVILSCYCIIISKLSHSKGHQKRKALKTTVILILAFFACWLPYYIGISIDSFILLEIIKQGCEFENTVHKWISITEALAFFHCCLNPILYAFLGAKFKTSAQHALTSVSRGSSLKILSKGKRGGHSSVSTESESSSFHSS

B1: 55A01-14D09 (A0110055A01-35GS-4CXCR014D09(Q108L)) (bispecific antibody)
chain: EVQLVESGGGSVQAGGSLRLSCTTSGRALNMYVMGWFRQAPGNEREFVAATSSSGGSTSYPDSVKGRFTISRDNAKNTVYLQMNSLKPEDTAAYRCAASPYVSTPTMNILEEYRYWGQGTLVTVSSGGGGSGGGGSGGGGSGGGGSGGGGSGGGGSGGGGSEVQLVESGGGLVQAGGSLRLSCVASGISSSKRNMGWYRQAPGKQRESVATISSGGNKDYTDAVKDRFTISRDTTKNTVYLQMNSLKPEDTAVYYCKIEAGTGWATRRGYTYWGQGTLVTVSSAAAEQKLISEEDLNGAAHHHHHH
notes: the entry carries a c-myc-His6 tag; also made as Flag3-His6-tagged protein; also called CD123#2-CXCR4#1; BI#8/22
Does B1 bind [1]?
Result: binds

And the “Fold inc. vs anti-CXCR4 building block, Jurkat E6-1” value [2]?
The value was 0.12 fold.

And the “Fold inc. vs anti-CXCR4 building block, MOLM-13” value [2]?
Its value is 0.03 fold.

And the “IC50, CXCL-12 induced chemotaxis, Jurkat E6-1” value (from here on “IC50 … Jurkat E6-1”) [2]?
The value was 85 nM.

And the “IC50, CXCL-12 induced chemotaxis, MOLM-13” value (“IC50 … MOLM-13” for short) [2]?
The value was 290 nM.

B2: CD4#8-IL12Rb1#30 (bispecific antibody)
chain: EVQLVESGGGSVQPGGSLTLSCGTSGRTFNVMGWFRQAPGKEREFVAAVRWSSTGIYYTQYADSVKSRFTISRDNAKNTVYLEMNSLKPEDTAVYYCAADTYNSNPARWDGYDFRGQGTLVTVSSGGGGSGGGGSGGGGSGGGGSGGGGSGGGGSGGGGSEVQLVESGGGLVQTGGSLRLSCAASGRTPRLVAMGWFRQTPGKEREFVGEIILSKGFTYYADSVKGRFTISRVNAKNTITMYLQMNSLKSEDTAVYYCAGRQNWSGSPARTNEYEYWGQGTLVTVSS
notes: also called BI#40; T023200040
Does B2 bind [3]?
Result: binds

B3: CD4#8-IL12Rb1#31 (bispecific antibody)
chain: B2 chain with R190S, L191I, V192I, V233A, G260A, S267N, A269T
notes: also called BI#41; T023200041
Does B3 bind [3]?
Result: binds

B4: CD4#8-IL23R#19 (bispecific antibody)
chain: EVQLVESGGGSVQPGGSLTLSCGTSGRTFNVMGWFRQAPGKEREFVAAVRWSSTGIYYTQYADSVKSRFTISRDNAKNTVYLEMNSLKPEDTAVYYCAADTYNSNPARWDGYDFRGQGTLVTVSSGGGGSGGGGSGGGGSGGGGSGGGGSGGGGSGGGGSEVQLVESGGGLVQPGGSLTLSCVASGRTFSTDVMGWFRQAPGKEREFVAAHRTSGISTVYAASVKGRFTISRDNAKNTVYLGMKSLKPEDTAVYVCAAGSDASGGYDYWGQGTLVTVSS
notes: also called BI#45; T023200045
Does B4 bind [3]?
Result: binds

B5: 57A07-281F12 (A0110057A07-35GS-4CXCR281F12(Q108L)) (bispecific antibody)
chain: EVQLVESGGGLVQAGGSLRLSCAASGSIFSGNVMGWYRRQAPGKEREWVAAIASGGSIYYRDSVKGRFTISRDNAKNTVYLQMNSLKPEDTAVYYCNSHPPTLPYWGQGTLVTVSSGGGGSGGGGSGGGGSGGGGSGGGGSGGGGSGGGGSEVQLVESGGGLVQAGDSLRLSCAASGRAFSRYAMGWFRQAPGKEREFVAAIGWGPSKTNYADSVKGRFTISRDNAKNTVYLQMNTLKPEDTAVYSCAAKFVNTDSTWSRSEMYTYWGQGTLVTVSSAAAEQKLISEEDLNGAAHHHHHH
notes: the entry carries a c-myc-His6 tag; also made as Flag3-His6-tagged protein; also called CD123#1-CXCR4#2; BI#10/21
Does B5 bind [1]?
Result: binds

B6: IL23R#20-CD4#8 (bispecific antibody)
chain: EVQLVESGGGLVQAGGSLRLSCAASGRTFSSYAMGWFRQAPGKDREFVAAISWIGESTYYADSVKGRFTISRDNAKNTVYLRMNSLKPEDTAVYYCAADLYYTAYVAAADEYDYWGQGTLVTVSSGGGGSGGGGSGGGGSGGGGSGGGGSGGGGSGGGGSEVQLVESGGGSVQPGGSLTLSCGTSGRTFNVMGWFRQAPGKEREFVAAVRWSSTGIYYTQYADSVKSRFTISRDNAKNTVYLEMNSLKPEDTAVYYCAADTYNSNPARWDGYDFRGQGTLVTVSS
notes: also called BI#43; T023200043
Does B6 bind [3]?
Result: binds

B7: 55A01-281F12 (A0110055A01-35GS-4CXCR281F12(Q108L)) (bispecific antibody)
chain: EVQLVESGGGSVQAGGSLRLSCTTSGRALNMYVMGWFRQAPGNEREFVAATSSSGGSTSYPDSVKGRFTISRDNAKNTVYLQMNSLKPEDTAAYRCAASPYVSTPTMNILEEYRYWGQGTLVTVSSGGGGSGGGGSGGGGSGGGGSGGGGSGGGGSGGGGSEVQLVESGGGLVQAGDSLRLSCAASGRAFSRYAMGWFRQAPGKEREFVAAIGWGPSKTNYADSVKGRFTISRDNAKNTVYLQMNTLKPEDTAVYSCAAKFVNTDSTWSRSEMYTYWGQGTLVTVSSAAAEQKLISEEDLNGAAHHHHHH
notes: the entry carries a c-myc-His6 tag; also made as Flag3-His6-tagged protein; also called CD123#2-CXCR4#2; BI#15/24
Does B7 bind [1]?
Result: binds

B8: 281F12-57A07 (4CXCR281F12(Q108L)-35GS-A0110057A07) (bispecific antibody)
chain: EVQLVESGGGLVQAGDSLRLSCAASGRAFSRYAMGWFRQAPGKEREFVAAIGWGPSKTNYADSVKGRFTISRDNAKNTVYLQMNTLKPEDTAVYSCAAKFVNTDSTWSRSEMYTYWGQGTLVTVSSGGGGSGGGGSGGGGSGGGGSGGGGSGGGGSGGGGSEVQLVESGGGLVQAGGSLRLSCAASGSIFSGNVMGWYRRQAPGKEREWVAAIASGGSIYYRDSVKGRFTISRDNAKNTVYLQMNSLKPEDTAVYYCNSHPPTLPYWGQGTLVTVSSAAAEQKLISEEDLNGAAHHHHHH
notes: the entry carries a c-myc-His6 tag; also made as Flag3-His6-tagged protein; also called CXCR4#2-CD123#1; BI#4/18
Does B8 bind [1]?
Result: binds

What about the “Fold inc. vs anti-CXCR4 building block, Jurkat E6-1” value [2] of the same binder?
The value was 2.55 fold.

What about the “Fold inc. vs anti-CXCR4 building block, MOLM-13” value [2] of the same binder?
The value was 12.6 fold.

What about the “IC50 … Jurkat E6-1” value [2] of the same binder?
Its value is 38 nM.

What about the “IC50 … MOLM-13” value [2] of the same binder?
The value was 6.83 nM.

B9: CD4#8-IL23R#20 (bispecific antibody)
chain: EVQLVESGGGSVQPGGSLTLSCGTSGRTFNVMGWFRQAPGKEREFVAAVRWSSTGIYYTQYADSVKSRFTISRDNAKNTVYLEMNSLKPEDTAVYYCAADTYNSNPARWDGYDFRGQGTLVTVSSGGGGSGGGGSGGGGSGGGGSGGGGSGGGGSGGGGSEVQLVESGGGLVQAGGSLRLSCAASGRTFSSYAMGWFRQAPGKDREFVAAISWIGESTYYADSVKGRFTISRDNAKNTVYLRMNSLKPEDTAVYYCAADLYYTAYVAAADEYDYWGQGTLVTVSS
notes: also called BI#44; T023200044
Does B9 bind [3]?
Result: binds

B10: IL12Rb1#30-CD4#8 (bispecific antibody)
chain: EVQLVESGGGLVQTGGSLRLSCAASGRTPRLVAMGWFRQTPGKEREFVGEIILSKGFTYYADSVKGRFTISRVNAKNTITMYLQMNSLKSEDTAVYYCAGRQNWSGSPARTNEYEYWGQGTLVTVSSGGGGSGGGGSGGGGSGGGGSGGGGSGGGGSGGGGSEVQLVESGGGSVQPGGSLTLSCGTSGRTFNVMGWFRQAPGKEREFVAAVRWSSTGIYYTQYADSVKSRFTISRDNAKNTVYLEMNSLKPEDTAVYYCAADTYNSNPARWDGYDFRGQGTLVTVSS
notes: also called BI#46; T023200046
Does B10 bind [3]?
Result: binds

B11: IL12Rb1#31-CD4#8 (bispecific antibody)
chain: B10 chain with R30S, L31I, V32I, V73A, G100A, S107N, A109T
notes: also called BI#47; T023200047
Does B11 bind [3]?
Result: binds

B12: 281F12-55A01 (4CXCR281F12(Q108L)-35GS-A0110055A01) (bispecific antibody)
chain: EVQLVESGGGLVQAGDSLRLSCAASGRAFSRYAMGWFRQAPGKEREFVAAIGWGPSKTNYADSVKGRFTISRDNAKNTVYLQMNTLKPEDTAVYSCAAKFVNTDSTWSRSEMYTYWGQGTLVTVSSGGGGSGGGGSGGGGSGGGGSGGGGSGGGGSGGGGSEVQLVESGGGSVQAGGSLRLSCTTSGRALNMYVMGWFRQAPGNEREFVAATSSSGGSTSYPDSVKGRFTISRDNAKNTVYLQMNSLKPEDTAAYRCAASPYVSTPTMNILEEYRYWGQGTLVTVSSAAAEQKLISEEDLNGAAHHHHHH
notes: the entry carries a c-myc-His6 tag; also made as Flag3-His6-tagged protein; also called CXCR4#2-CD123#2; BI#3/17
Does B12 bind [1]?
Result: binds

What about the “Fold inc. vs anti-CXCR4 building block, Jurkat E6-1” value [2] of the same binder?
Its value is 1.13 fold.

What about the “Fold inc. vs anti-CXCR4 building block, MOLM-13” value [2] of the same binder?
Its value is 10.9 fold.

And the “IC50 … Jurkat E6-1” value [2]?
Its value is 86 nM.

And the “IC50 … MOLM-13” value [2]?
The value was 7.85 nM.

B13: 14D09-57A07 (4CXCR014D09(Q108L)-35GS-A0110057A07) (bispecific antibody)
chain: EVQLVESGGGLVQAGGSLRLSCVASGISSSKRNMGWYRQAPGKQRESVATISSGGNKDYTDAVKDRFTISRDTTKNTVYLQMNSLKPEDTAVYYCKIEAGTGWATRRGYTYWGQGTLVTVSSGGGGSGGGGSGGGGSGGGGSGGGGSGGGGSGGGGSEVQLVESGGGLVQAGGSLRLSCAASGSIFSGNVMGWYRRQAPGKEREWVAAIASGGSIYYRDSVKGRFTISRDNAKNTVYLQMNSLKPEDTAVYYCNSHPPTLPYWGQGTLVTVSSAAAEQKLISEEDLNGAAHHHHHH
notes: the entry carries a c-myc-His6 tag; also made as Flag3-His6-tagged protein; also called CXCR4#1-CD123#1; BI#16/20
What does the source list for B13?
binding result [1]: binds; Fold inc. vs anti-CXCR4 building block, Jurkat E6-1 [2]: 0.69 fold; Fold inc. vs anti-CXCR4 building block, MOLM-13 [2]: 2.39 fold; IC50, CXCL-12 induced chemotaxis, Jurkat E6-1 [2]: 15 nM; IC50, CXCL-12 induced chemotaxis, MOLM-13 [2]: 3.6 nM

B14: 57A07-14D09 (A0110057A07-35GS-4CXCR014D09(Q108L)) (bispecific antibody)
chain: EVQLVESGGGLVQAGGSLRLSCAASGSIFSGNVMGWYRRQAPGKEREWVAAIASGGSIYYRDSVKGRFTISRDNAKNTVYLQMNSLKPEDTAVYYCNSHPPTLPYWGQGTLVTVSSGGGGSGGGGSGGGGSGGGGSGGGGSGGGGSGGGGSEVQLVESGGGLVQAGGSLRLSCVASGISSSKRNMGWYRQAPGKQRESVATISSGGNKDYTDAVKDRFTISRDTTKNTVYLQMNSLKPEDTAVYYCKIEAGTGWATRRGYTYWGQGTLVTVSSAAAEQKLISEEDLNGAAHHHHHH
notes: the entry carries a c-myc-His6 tag; for the cell assays the construct was recloned and made in Pichia as Flag3-His6-tagged protein; also called CD123#1-CXCR4#1; BI#11/23
Does B14 bind [1]?
Result: binds

And the “Fold inc. vs anti-CXCR4 building block, Jurkat E6-1” value [2]?
The value was 0.05 fold.

What about the “IC50 … Jurkat E6-1” value [2] of the same binder?
Its value is 210 nM.

B15: 14D09-55A01 (4CXCR014D09(Q108L)-35GS-A0110055A01) (bispecific antibody)
chain: EVQLVESGGGLVQAGGSLRLSCVASGISSSKRNMGWYRQAPGKQRESVATISSGGNKDYTDAVKDRFTISRDTTKNTVYLQMNSLKPEDTAVYYCKIEAGTGWATRRGYTYWGQGTLVTVSSGGGGSGGGGSGGGGSGGGGSGGGGSGGGGSGGGGSEVQLVESGGGSVQAGGSLRLSCTTSGRALNMYVMGWFRQAPGNEREFVAATSSSGGSTSYPDSVKGRFTISRDNAKNTVYLQMNSLKPEDTAAYRCAASPYVSTPTMNILEEYRYWGQGTLVTVSSAAAEQKLISEEDLNGAAHHHHHH
notes: the entry carries a c-myc-His6 tag; also made as Flag3-His6-tagged protein; also called CXCR4#1-CD123#2; BI#7/19
Does B15 bind [1]?
Result: binds

What about the “Fold inc. vs anti-CXCR4 building block, Jurkat E6-1” value [2] of the same binder?
Its value is 0.87 fold.

And the “Fold inc. vs anti-CXCR4 building block, MOLM-13” value [2]?
The value was 2.39 fold.

And the “IC50 … Jurkat E6-1” value [2]?
Its value is 12 nM.

What about the “IC50 … MOLM-13” value [2] of the same binder?
Its value is 3.6 nM.
